# Reference: US20220111022A1 (IMMATICS BIOTECHNOLOGIES, published 2022)
# Biological target: T1, HLA-A*02:01 (human)
# T1 construct: MHC monomers first loaded with a UV-sensitive peptide (not identified) that is cleaved and exchanged for the test peptide; captured on streptavidin-coated plates and detected with anti-β2m; also called peptide-receptive MHC molecules; MHC class I
# Experiment: UV-ligand exchange, anti-b2m ELISA; peptide exchange yield grade
# Description: Candidate peptides for T cell based therapies according to the present invention were further tested for their MHC binding capacity (affinity). The individual peptide-MHC complexes were produced by UV-ligand exchange, where a UV-sensitive peptide is cleaved upon UV-irradiation and exchanged with the peptide of interest as analyzed. Only peptide candidates that can effectively bind and stabilize the peptide-receptive MHC molecules prevent dissociation of the MHC complexes. To determine the yield of the exchange reaction, an ELISA was performed based on the detection of the light chain (β2m) of stabilized MHC complexes. The assay was performed as generally described in Rodenko et al. (Rodenko et al., 2006).
# 96 well MAXISorp plates (NUNC) were coated over night with 2 μg/ml streptavidin in PBS at room temperature, washed 4× and blocked for 1 h at 37° C. in 2% BSA containing blocking buffer. Refolded HLA-A*02:01/MLA-001 monomers served as standards, covering the range of 15-500 ng/ml. Peptide-MHC monomers of the UV-exchange reaction were diluted 100-fold in blocking buffer. Samples were incubated for 1 h at 37° C., washed four times, incubated with 2 μg/ml HRP conjugated anti-β2m for 1h at 37° C., washed again and detected with TMB solution that is stopped with […]. Absorption was measured at 450 nm. Candidate peptides that show a high exchange yield (preferably higher than 50%, most preferred higher than 75%) are generally preferred for a generation and production of antibodies or fragments thereof, and/or T cell receptors or fragments thereof, as they show sufficient avidity to the MHC molecules and prevent dissociation of the MHC complexes.
row,Binder,peptide exchange yield [%]
1,NMYDLTFHV,≥ 75
2,LLDITNPVL,≥ 75
3,FLNPDGSDCTL,≥ 75
4,RLLDETVDVTI,≥ 75
5,SMASFLKDV,≥ 75
6,LLDTTDVYL,50 to 75
7,AVDKTQTSV,50 to 75
8,FLNVDVSEV,≥ 75
9,ALAGLVYDA,≥ 75
10,NLADNTILV,≥ 75
11,KLDASLPAL,≥ 75
12,NLLDHSSMFL,≥ 75
13,KLAPDLTEL,50 to 75
14,ALDSSLQLL,≥ 75
15,YLGAVFDL,≥ 75
16,ALADLTGTV,≥ 75
17,ALDSTNSEL,≥ 75
18,RLQDTTIGL,≥ 75

row,Binder,peptide exchange yield [%]
1,VLDGTEVNL,≥ 75
2,SLDDSLNEL,50 to 75
3,YLWWVNDQSL,≥ 75
4,YLHGFDLSL,≥ 75
5,VLKDGTLVI,20 to 50
6,YLADFSHAT,≥ 75
7,SLFIDVTRV,≥ 75
8,KLHDTSFCL,≥ 75
9,AIDQTITEA,50 to 75
10,NLLADVSTV,50 to 75
11,KILDFTGPLFL,≥ 75
12,YLDGTFRLL,50 to 75
13,ALMDVSQNV,≥ 75
14,SLLRDFTLV,≥ 75
15,KMLDETVLV,50 to 75
16,KLLDGSQRV,50 to 75
17,KLAPEDLADLTAL,≥ 75
18,SLLDENDVSSYL,≥ 75
